Target: TDP-43 RRM1-2 WT (UniProt Q13148 102-269)
Assay: BLI; EMSA: 5 ug total lysate in RIPA with RNase inhibitor, 2 ug tRNA, 1 uM unlabelled (GU)x6 and 2.5 nM biotin-(GU)x6, 30 min room temperature, 6% native PAGE; BLI buffer not given in the material (protein purified in phosphate buffer pH 7.2)
Conditions: protein: recombinant; tags: 6xHis-SUMO removed by TEV

Chain of TDP-43 RRM1-2 WT (Q13148 102-269): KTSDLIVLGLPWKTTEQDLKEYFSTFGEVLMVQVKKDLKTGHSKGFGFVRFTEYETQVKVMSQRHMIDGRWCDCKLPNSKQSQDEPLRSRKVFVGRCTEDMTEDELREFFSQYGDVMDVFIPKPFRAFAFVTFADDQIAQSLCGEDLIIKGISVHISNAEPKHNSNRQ

## GUGUGAAUGAAU (ssRNA) [AUG-RNA]
  Kd: 3.2 ± 0.9 nM
